In publication PMC4072508 (PLoS Computational Biology, 2014):
FAM = fluorescein group

Key:
Test in all cases: fluorescence polarisation; direct binding: 10 nM FAM-labeled peptide, receptor serially diluted; 25°C; 20 mM NaPO4, 50 mM NaCl, 1 mM EDTA, 0.001% Triton X, pH 7.8; single-site binding model
Details in all cases: both partners purified
Bcl-w = biological target: T1, Bcl-w (human, UniProt Q92843 1-193)
T1 construct: human Bcl-w; The c-Myc tag is told for the SPOT arrays; also called c-Myc-tagged receptor; prosurvival protein
T1 sequence (looked up): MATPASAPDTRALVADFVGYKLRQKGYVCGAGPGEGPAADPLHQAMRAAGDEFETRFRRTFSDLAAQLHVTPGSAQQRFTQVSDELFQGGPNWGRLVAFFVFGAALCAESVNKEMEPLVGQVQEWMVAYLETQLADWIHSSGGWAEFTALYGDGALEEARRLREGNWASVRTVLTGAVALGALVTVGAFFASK

Bcl-2 = biological target: T2, Bcl-2 (human, UniProt P10415 1-239)
T2 construct: human Bcl-2; The c-Myc tag is told for the SPOT arrays; also called c-Myc-tagged receptor; prosurvival protein

Mcl-1 = biological target: T3, Mcl-1 (human, UniProt Q07820 1-350)
T3 construct: human Mcl-1; The c-Myc tag is told for the SPOT arrays; also called c-Myc-tagged receptor; prosurvival protein

Bfl-1 = biological target: T4, Bfl-1 (human, UniProt Q16548 1-175)
T4 construct: human Bfl-1; The c-Myc tag is told for the SPOT arrays; also called c-Myc-tagged receptor; prosurvival protein
T4 sequence (looked up): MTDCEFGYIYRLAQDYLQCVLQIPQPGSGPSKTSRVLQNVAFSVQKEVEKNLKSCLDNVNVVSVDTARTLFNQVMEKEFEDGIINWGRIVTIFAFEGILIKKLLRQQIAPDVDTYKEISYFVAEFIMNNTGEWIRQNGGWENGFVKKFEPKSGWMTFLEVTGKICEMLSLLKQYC

T2 sequence (P10415 whole entry): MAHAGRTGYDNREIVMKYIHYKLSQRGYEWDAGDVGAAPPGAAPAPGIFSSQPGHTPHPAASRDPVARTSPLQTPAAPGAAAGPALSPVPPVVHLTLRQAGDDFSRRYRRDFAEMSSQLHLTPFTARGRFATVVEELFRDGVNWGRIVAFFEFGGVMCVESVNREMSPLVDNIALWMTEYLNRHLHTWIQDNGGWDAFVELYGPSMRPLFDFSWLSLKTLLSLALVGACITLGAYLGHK
T3 sequence (Q07820 whole entry): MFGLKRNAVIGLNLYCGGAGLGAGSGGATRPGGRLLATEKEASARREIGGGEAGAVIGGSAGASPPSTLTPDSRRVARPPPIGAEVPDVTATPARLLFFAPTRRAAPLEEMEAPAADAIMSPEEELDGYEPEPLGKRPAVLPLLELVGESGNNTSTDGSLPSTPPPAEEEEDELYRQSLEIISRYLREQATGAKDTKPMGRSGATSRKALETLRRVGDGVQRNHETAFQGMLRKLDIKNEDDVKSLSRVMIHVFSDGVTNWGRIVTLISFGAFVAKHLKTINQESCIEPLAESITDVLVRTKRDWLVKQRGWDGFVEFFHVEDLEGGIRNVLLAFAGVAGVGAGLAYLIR

| Binder | Kd (Bcl-w) | Kd (Bcl-2) | Kd (Mcl-1) | Kd (Bfl-1) |
| --- | --- | --- | --- | --- |
| {FAM}-IIQMIVELLKRVGDQWEEEQSLA-NH2 [c6orf222 BH3-like peptide] | < 30 nM | < 30 nM | < 30 nM | < 30 nM |
| {FAM}-PFKAWGKFGGAFCRYADEMKEIQERQ-NH2 [PURB BH3-like peptide] |  | 40 nM |  |  |
